Assays:
[1] = test system: human iPSC; test: mThy1 gene targeting in hiPSC co-transfected with DNA repair or viral inhibitor genes; format: cell-based
Protocol: FIGS. 9A-G. Effects of chemical and genetic inhibitors on mThy1 gene targeting in hiPSC. FIG. 9A. Mouse Thy1 gene targeting scheme. Human iPSC were nucleofected with the mThy1 targeting vector system plasmids and analyzed by flow cytometry five days later. The percentages of mThy1^+hThy1^−, mThy1^+hThy1^+, and mThy1^−hThy1^− cells for each sample (gated on live single cells) are graphed. Lines mark the percentage values for the control sample. FIGS. 9B-9D. Human iPSC were nucleofected with: 2 μg mThy1 targeting vector; 0.5 μg Cas9 plasmid; and 1.5 μg of sgRNA plasmids. The sample was divided into multiple wells and cultured in plain media (mTeSR1+10 μM Y-27632 ROCK inhibitor) supplemented with the indicated chemical inhibitor for three days. 20 μM pifithrin α, 200 μM peptide V5 (VPMLK, SEQ ID NO:31), 200 μM peptide control (IPMIK, SEQ ID NO:32), 50 μM TEMPOL, or the indicated concentrations of SCR7 or L755507 were used. FIG. 9B, mThy1^+hThy1^− (bottom portion of each bar in each graph), mThy1^+hThy1^+ (top portion of each bar in each graph). FIG. 9C, mThy1^+hThy1^− (bottom portion of each bar in each graph), mThy1^+hThy1^+ (top portion of each bar in left and center graphs, middle portion of each bar in right graph), and mThy1^−hThy1^− (top portion of each bar in right graph). FIG. 9D, mThy1^+hThy1^− (bottom portion of each bar in each graph), mThy1^+hThy1^+ (center portion of each bar in each graph), and mThy1^−hThy1^− (top portion of each bar in each graph). FIGS. 9E-9F. Human iPSC were nucleofected with: 2 μg mThy1 targeting vector plasmid; 0.5 μg Cas9 plasmid; 1 μg of sgRNA plasmids; and 0.5 μg of plasmid expressing the indicated DNA repair gene or pUC19 control (“Cas9 only”). For FIG. 9E, cultures were treated with 50 μM zVAD and 10 μM SB203580 post transfection. mThy1^+hThy1^− (bottom portion of each bar in each graph), mThy1^+hThy1^+ (top portion of each bar in left and center graphs, middle portion of each bar in right graph), and mThy1^−hThy1^− (top portion of each bar in right graph). FIG. 9F, mThy1^+hThy1^− (bottom portion of each bar in each graph), mThy1^+hThy1^+ (top portion of each bar in left and center graphs, middle portion of each bar in right graph), and mThy1^−hThy1^− (top portion of each bar in right graph). FIG. 9G. Human iPSC were nucleofected with: 2 μg mThy1 targeting vector plasmid; 0.5 μg Cas9 plasmid; and 1.5 μg of sgRNA plasmids. The indicated viral inhibitor genes were cloned into the Cas9 expression vector following an IRES sequence. Cultures were supplemented with 50 μM zVAD post transfection. mThy1^+hThy1^− (bottom portion of each bar in each graph), mThy1^+hThy1^+ (top portion of each bar in left and center graphs, middle portion of each bar in right graph), and mThy1^−hThy1^− (top portion of each bar in right graph). […]

[2] = test system: human iPSC; test: gene disruption of hiPSC surface markers with truncated sgRNAs and Trex2 (flow cytometry); format: cell-based; details: 1 μg Trex2 plasmid with Cas9 and sgRNA plasmids, five days
From the text: FIG. 12. Gene disruption activity of truncated sgRNAs with and without the Trex2 endonuclease. Full length (20 bp of target complementarity) and Truncated (18-19 bp) sgRNAs were designed to target the coding region of four genes expressed on the surface of hiPSC (top) and cloned into expression plasmids under the constitutive U6 promoter. The Cas9 nuclease and Trex2 endonuclease were also cloned into separate expression plasmids under the constitutive EF1α promoter. Human iPSC were nucleofected with 0.5 μg Cas9 plasmid, 1 μg sgRNA plasmid, and 1 μg of either pUC19 control or Trex2 plasmid. Five days later, cells were stained for expression of the surface markers (Thy 1, CD147, HLA-A2, or HLA-BC) and analyzed by flow cytometry gated on live single cells (open histograms). Shaded histograms indicate staining of an untargeted hiPSC control. The percent of cells that have lost expression of the surface markers is shown.
Pluripotency of iPSC cultures was verified by flow cytometry staining using anti-human Tra-1/60 PE (TRA-1-60, BD) and anti-human Oct3/4 eFluor 660 (EM92, eBioscience) with the fixation buffer sold under the trademark BD CYTOFIX™ and permeabilization buffer sold under the trademark PHOSFLOW™ Perm/Wash buffers. […] Viable cell counts were measured with the cell analyzer sold under the trademark MUSE® Count & Viability Assay kit (EMD Millipore). […]

[3] = 0.5 μg plasmid overexpressing the DNA repair gene, 50 μM zVAD and 10 μM SB203580 post transfection (FIG. 9E)

B1: Trex2: endonuclease Trex2, expressed from plasmid (protein, UniProt Q9BQ50 1-236, looked up)
Three prime repair …: MSEAPRAETFVFLDLEATGLPSVEPEIAELSLFAVHRSSLENPEHDESGALVLPRVLDKLTLCMCPERPFTAKASEITGLSSEGLARCRKAGFDGAVVRTLQAFLSRQAGPICLVAHNGFDYDFPLLCAELRRLGARLPRDTVCLDTLPALRGLDRAHSHGTRARGRQGYSLGSLFHRYFRAEPSAAHSAEGDVHTLLLIFLHRAAELLAWADEQARGWAHIEPMYLPPDDPSLEA
mThy1 gene targeting efficiency ([1]; Trex2 plasmid added (FIG. 9F)): reduced mThy1 gene targeting efficiency | gene disruption frequencies [2]: increased gene disruption frequencies

B2: Rad51: DNA repair gene overexpressed from plasmid (protein, UniProt Q06609 2-339, looked up)
DNA repair protein RAD51 …: AMQMQLEANADTSVEEESFGPQPISRLEQCGINANDVKKLEEAGFHTVEAVAYAPKKELINIKGISEAKADKILAEAAKLVPMGFTTATEFHQRRSEIIQITTGSKELDKLLQGGIETGSITEMFGEFRTGKTQICHTLAVTCQLPIDRGGGEGKAMYIDTEGTFRPERLLAVAERYGLSGSDVLDNVAYARAFNTDHQTQLLYQASAMMVESRYALLIVDSATALYRTDYSGRGELSARQMHLARFLRMLLRLADEFGVAVVITNQVVAQVDGAAMFAADPKKPIGGNIIAHASTTRLYLRKGRGETRICKIYDSPCLPEAEAMFAINADGVGDAKD
mThy1 gene targeting efficiency [1, 3]: reduced gene targeting efficiency

B3: CtIP: principal HR mediator, overexpressed from plasmid (protein, UniProt Q99708 1-897, looked up)
DNA endonuclease RBBP8: MNISGSSCGSPNSADTSSDFKDLWTKLKECHDREVQGLQVKVTKLKQERILDAQRLEEFFTKNQQLREQQKVLHETIKVLEDRLRAGLCDRCAVTEEHMRKKQQEFENIRQQNLKLITELMNERNTLQEENKKLSEQLQQKIENDQQHQAAELECEEDVIPDSPITAFSFSGVNRLRRKENPHVRYIEQTHTKLEHSVCANEMRKVSKSSTHPQHNPNENEILVADTYDQSQSPMAKAHGTSSYTPDKSSFNLATVVAETLGLGVQEESETQGPMSPLGDELYHCLEGNHKKQPFEESTRNTEDSLRFSDSTSKTPPQEELPTRVSSPVFGATSSIKSGLDLNTSLSPSLLQPGKKKHLKTLPFSNTCISRLEKTRSKSEDSALFTHHSLGSEVNKIIIQSSNKQILINKNISESLGEQNRTEYGKDSNTDKHLEPLKSLGGRTSKRKKTEEESEHEVSCPQASFDKENAFPFPMDNQFSMNGDCVMDKPLDLSDRFSAIQRQEKSQGSETSKNKFRQVTLYEALKTIPKGFSSSRKASDGNCTLPKDSPGEPCSQECIILQPLNKCSPDNKPSLQIKEENAVFKIPLRPRESLETENVLDDIKSAGSHEPIKIQTRSDHGGCELASVLQLNPCRTGKIKSLQNNQDVSFENIQWSIDPGADLSQYKMDVTVIDTKDGSQSKLGGETVDMDCTLVSETVLLKMKKQEQKGEKSSNEERKMNDSLEDMFDRTTHEEYESCLADSFSQAADEEEELSTATKKLHTHGDKQDKVKQKAFVEPYFKGDERETSLQNFPHIEVVRKKEERRKLLGHTCKECEIYYADMPAEEREKKLASCSRHRFRYIPPNTPENFWEVGFPSTQTCMERGYIKEDLDPCPRPKRRQPYNAIFSPKGKEQKT
mThy1 gene targeting efficiency [1, 3]: did not improve mThy1 gene targeting efficiency

B4: MRE11a: principal HR mediator, overexpressed from plasmid (protein, UniProt P49959 2-708, looked up)
Double-strand break repair …: STADALDDENTFKILVATDIHLGFMEKDAVRGNDTFVTLDEILRLAQENEVDFILLGGDLFHENKPSRKTLHTCLELLRKYCMGDRPVQFEILSDQSVNFGFSKFPWVNYQDGNLNISIPVFSIHGNHDDPTGADALCALDILSCAGFVNHFGRSMSVEKIDISPVLLQKGSTKIALYGLGSIPDERLYRMFVNKKVTMLRPKEDENSWFNLFVIHQNRSKHGSTNFIPEQFLDDFIDLVIWGHEHECKIAPTKNEQQLFYISQPGSSVVTSLSPGEAVKKHVGLLRIKGRKMNMHKIPLHTVRQFFMEDIVLANHPDIFNPDNPKVTQAIQSFCLEKIEEMLENAERERLGNSHQPEKPLVRLRVDYSGGFEPFSVLRFSQKFVDRVANPKDIIHFFRHREQKEKTGEEINFGKLITKPSEGTTLRVEDLVKQYFQTAEKNVQLSLLTERGMGEAVQEFVDKEEKDAIEELVKYQLEKTQRFLKERHIDALEDKIDEEVRRFRETRQKNTNEEDDEVREAMTRARALRSQSEESASAFSADDLMSIDLAEQMANDSDDSISAATNKGRGRGRGRRGGRGQNSASRGGSQRGRADTGLETSTRSRNSKTAVSASRNMSIIDAFKSTRQQPSRNVTTKNYSEVIEVDESDVEEDIFPTTSKTDQRWSSTSSSKIMSQSQVSKGVDFESSEDDDDDPFMNTSSLRRNRR
mThy1 gene targeting efficiency [1, 3]: did not improve mThy1 gene targeting efficiency

Reference: patent publication US11459586B2, “Methods for increasing efficiency of nuclease-mediated gene editing in stem cells” (President and Fellows of Harvard College, priority 2016, dated 2022)
